The values that follow come from paper PMC2867956, “Interdomain Interactions Control Ca^2+-Dependent Potentiation in the Cation Channel TRPV4” (PLoS ONE, 2010).

Assay [1] concerns the target C2-GST-biotin (C-terminal TRPV4 fragment C2) (human). Put plainly: AlphaScreen or HTRF; C2-biotin with CaM-Flag or mutants, Ca2+ concentration varied. In general terms: Bead proximity is the source of the signal in Alpha formats.
In assay [2] the target is YFP-fused C1 fragment (full-length TRPV4 C terminus). The experiment in a line: FRET acceptor photobleaching in HEK293 cells. The note with it: coexpressed in HEK293 cells; 3 independent experiments; parent: est. 35; read off a plot.
For assay [3], the target named is N1-YFP (full-length TRPV4 N terminus). Put plainly: FRET or BRET; acceptor photobleaching FRET of CFP- and YFP-fused TRPV4 termini coexpressed in HEK293 cells.
Sequence of N1-YFP (full-length TRPV4 N terminus) (Q9HBA0 whole entry, the tested form may be a part): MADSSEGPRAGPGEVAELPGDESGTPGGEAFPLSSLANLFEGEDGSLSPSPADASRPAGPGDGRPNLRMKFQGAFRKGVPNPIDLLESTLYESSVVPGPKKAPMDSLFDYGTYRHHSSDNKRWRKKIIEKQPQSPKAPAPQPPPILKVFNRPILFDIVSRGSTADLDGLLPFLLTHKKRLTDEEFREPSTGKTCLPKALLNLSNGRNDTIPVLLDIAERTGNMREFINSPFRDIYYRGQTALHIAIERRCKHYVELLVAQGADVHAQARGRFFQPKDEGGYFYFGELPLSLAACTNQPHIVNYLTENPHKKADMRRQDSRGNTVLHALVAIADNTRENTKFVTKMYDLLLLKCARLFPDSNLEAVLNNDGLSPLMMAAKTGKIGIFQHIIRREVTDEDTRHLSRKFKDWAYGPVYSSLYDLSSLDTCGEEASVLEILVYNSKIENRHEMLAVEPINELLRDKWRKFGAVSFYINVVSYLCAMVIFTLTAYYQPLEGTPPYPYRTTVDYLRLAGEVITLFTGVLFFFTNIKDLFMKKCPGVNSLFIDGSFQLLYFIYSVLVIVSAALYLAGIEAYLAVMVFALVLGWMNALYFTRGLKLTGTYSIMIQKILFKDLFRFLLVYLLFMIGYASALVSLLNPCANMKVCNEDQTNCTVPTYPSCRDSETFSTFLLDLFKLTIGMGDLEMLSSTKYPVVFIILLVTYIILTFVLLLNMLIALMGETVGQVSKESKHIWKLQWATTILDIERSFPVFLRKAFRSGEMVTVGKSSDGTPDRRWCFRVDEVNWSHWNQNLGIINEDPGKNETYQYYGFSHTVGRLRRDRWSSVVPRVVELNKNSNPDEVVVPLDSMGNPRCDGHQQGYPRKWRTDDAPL
The target of assay [4] is C2-Flag (C-terminal TRPV4 fragment C2) (human). Put plainly: AlphaScreen or HTRF; competition: acceptor beads with C2-Flag, donor beads with P2-biotin or C2-biotin, increasing CaM, 100 µM Ca2+ or 1 mM EGTA.
Sequence of C2-Flag (C-terminal TRPV4 fragment C2) (human) (Q9HBA0 whole entry, the tested form may be a part): as above

Sequence of C2-GST-biotin (C-terminal TRPV4 fragment C2) (human) (Q9HBA0 whole entry, the tested form may be a part): as above
Sequence of CFP-fused N1 (full-length TRPV4 N terminus) (domain or fragment) (Q9HBA0 whole entry, the tested form may be a part): as above

Substance “CaM34 (CaM mutant Ca2+ binding-deficient in the C lobe), Flag-tagged (from UniProt P0DP23 1-149) (natural protein)” registered an EC50 of Ca2+ for the interaction in assay [1] of 27 µM.

Substance “wild type CaM-Flag (from UniProt P0DP23 1-149) (natural protein)” registered an EC50 of Ca2+ for the interaction in assay [1] of 8.8 µM. As to “CFP-fused N1 (full-length TRPV4 N terminus) WIA”, in assay [2], the response was 25%. As to “CFP-fused N1 (full-length TRPV4 N terminus) (domain or fragment)”, the maximal relative donor fluorescence increase after acceptor bleaching in assay [3] worked out at 1.27.

The term IC50 denotes the concentration needed to halve the response being measured. The low end stands for greater potency in that assay, the high end for weaker potency in that assay. As for “calmodulin (from UniProt P0DP23 1-149) (natural protein)”, the IC50 in assay [4] is 0.166 µM. In the case of “CFP-fused N1 (full-length TRPV4 N terminus) KRA”, the response in assay [2] was found to be 17%. In assay [1], “CaM12 (CaM mutant Ca2+ binding-deficient in the N lobe), Flag-tagged (from UniProt P0DP23 1-149) (natural protein)” displayed an EC50 of Ca2+ for the interaction of 10.7 µM.
